Results from US20250262210A1 (TRUSTEES OF COLUMBIA UNIVERSITY IN THE CITY OF NEW YORK, published 2025).

How the values were obtained:
Assay in all cases: IP/MS, LZTR1 R810W-FLAG, U87
ARHGEF28 = ARHGEF28 (human, UniProt Q8N1W1 1-1705, limits assumed)
Method in brief: (§1)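 Extracted peptides in 3% acetonitrile/0.1% formic acid ran on a 50 cm C18 column into an Orbitrap Fusion, with MaxQuant identification and spectral counting.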

GTF3C2 = molecular target: T1, GTF3C2 (human, UniProt Q8WUA4 1-911, limits assumed)
T1 sequence (looked up): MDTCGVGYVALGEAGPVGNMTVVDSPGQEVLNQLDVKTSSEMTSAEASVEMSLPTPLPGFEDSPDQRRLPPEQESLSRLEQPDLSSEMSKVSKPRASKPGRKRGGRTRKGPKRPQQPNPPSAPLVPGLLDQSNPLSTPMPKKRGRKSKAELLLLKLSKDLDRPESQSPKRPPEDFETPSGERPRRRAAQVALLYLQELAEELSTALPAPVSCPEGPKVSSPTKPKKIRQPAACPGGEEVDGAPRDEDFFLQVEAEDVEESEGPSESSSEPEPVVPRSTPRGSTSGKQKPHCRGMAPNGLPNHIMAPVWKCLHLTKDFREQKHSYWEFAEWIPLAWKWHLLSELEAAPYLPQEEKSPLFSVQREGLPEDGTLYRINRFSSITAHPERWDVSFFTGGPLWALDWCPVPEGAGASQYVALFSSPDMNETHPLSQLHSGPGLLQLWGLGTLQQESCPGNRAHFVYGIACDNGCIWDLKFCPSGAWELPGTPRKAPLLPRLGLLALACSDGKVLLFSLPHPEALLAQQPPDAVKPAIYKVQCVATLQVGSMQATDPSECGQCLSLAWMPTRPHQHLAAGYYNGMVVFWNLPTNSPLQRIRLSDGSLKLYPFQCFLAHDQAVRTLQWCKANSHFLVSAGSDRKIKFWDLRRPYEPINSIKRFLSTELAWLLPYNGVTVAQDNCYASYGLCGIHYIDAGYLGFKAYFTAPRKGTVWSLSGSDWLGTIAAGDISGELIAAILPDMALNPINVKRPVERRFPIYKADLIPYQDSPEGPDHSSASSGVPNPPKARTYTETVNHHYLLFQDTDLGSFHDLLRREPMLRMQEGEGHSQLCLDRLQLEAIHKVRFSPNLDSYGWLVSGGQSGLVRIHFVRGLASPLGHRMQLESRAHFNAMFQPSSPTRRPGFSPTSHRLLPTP
Method in brief: as §1

RICTOR = RICTOR (human, UniProt Q6R327 1-1708, limits assumed)
Method in brief: as §1

TTI1 = TTI1 (human, UniProt O43156 1-1089)
Method in brief: as §1

KIAA1468 = molecular target: T2, KIAA1468 (human, UniProt Q9P260 2-1216, limits assumed)
T2 sequence (looked up): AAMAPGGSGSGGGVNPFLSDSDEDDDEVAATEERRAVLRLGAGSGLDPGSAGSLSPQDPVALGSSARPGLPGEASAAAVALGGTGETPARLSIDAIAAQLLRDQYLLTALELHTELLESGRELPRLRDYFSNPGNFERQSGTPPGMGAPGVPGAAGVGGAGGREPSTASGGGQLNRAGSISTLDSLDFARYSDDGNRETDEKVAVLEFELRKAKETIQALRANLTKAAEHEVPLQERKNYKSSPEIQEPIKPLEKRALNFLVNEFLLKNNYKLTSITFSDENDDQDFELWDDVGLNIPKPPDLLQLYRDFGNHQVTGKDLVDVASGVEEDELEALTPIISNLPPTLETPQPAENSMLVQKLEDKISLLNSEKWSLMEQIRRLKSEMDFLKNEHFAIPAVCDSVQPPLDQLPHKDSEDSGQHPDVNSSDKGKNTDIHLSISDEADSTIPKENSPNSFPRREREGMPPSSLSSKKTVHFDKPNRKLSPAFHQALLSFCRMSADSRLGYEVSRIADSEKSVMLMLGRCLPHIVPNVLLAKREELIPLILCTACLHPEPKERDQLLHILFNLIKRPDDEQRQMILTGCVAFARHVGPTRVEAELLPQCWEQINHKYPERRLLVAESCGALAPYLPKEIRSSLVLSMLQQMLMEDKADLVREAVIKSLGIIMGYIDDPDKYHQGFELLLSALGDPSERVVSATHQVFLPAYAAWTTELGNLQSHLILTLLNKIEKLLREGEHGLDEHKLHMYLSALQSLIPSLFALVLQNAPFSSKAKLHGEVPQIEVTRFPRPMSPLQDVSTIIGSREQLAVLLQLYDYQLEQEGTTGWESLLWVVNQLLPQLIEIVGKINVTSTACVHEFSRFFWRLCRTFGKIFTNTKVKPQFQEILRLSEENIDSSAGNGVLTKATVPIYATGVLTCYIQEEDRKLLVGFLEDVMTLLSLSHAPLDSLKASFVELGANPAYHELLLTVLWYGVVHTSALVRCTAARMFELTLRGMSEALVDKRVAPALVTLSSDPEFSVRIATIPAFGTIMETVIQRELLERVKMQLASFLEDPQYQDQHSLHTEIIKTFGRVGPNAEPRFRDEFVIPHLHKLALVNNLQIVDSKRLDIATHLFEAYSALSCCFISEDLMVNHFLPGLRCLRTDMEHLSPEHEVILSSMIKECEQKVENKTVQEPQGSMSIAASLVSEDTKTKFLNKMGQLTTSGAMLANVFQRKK
Method in brief: as §1

Measured: binding result

ARHGEF28, sequence (Q8N1W1 whole entry, the tested form may be a part): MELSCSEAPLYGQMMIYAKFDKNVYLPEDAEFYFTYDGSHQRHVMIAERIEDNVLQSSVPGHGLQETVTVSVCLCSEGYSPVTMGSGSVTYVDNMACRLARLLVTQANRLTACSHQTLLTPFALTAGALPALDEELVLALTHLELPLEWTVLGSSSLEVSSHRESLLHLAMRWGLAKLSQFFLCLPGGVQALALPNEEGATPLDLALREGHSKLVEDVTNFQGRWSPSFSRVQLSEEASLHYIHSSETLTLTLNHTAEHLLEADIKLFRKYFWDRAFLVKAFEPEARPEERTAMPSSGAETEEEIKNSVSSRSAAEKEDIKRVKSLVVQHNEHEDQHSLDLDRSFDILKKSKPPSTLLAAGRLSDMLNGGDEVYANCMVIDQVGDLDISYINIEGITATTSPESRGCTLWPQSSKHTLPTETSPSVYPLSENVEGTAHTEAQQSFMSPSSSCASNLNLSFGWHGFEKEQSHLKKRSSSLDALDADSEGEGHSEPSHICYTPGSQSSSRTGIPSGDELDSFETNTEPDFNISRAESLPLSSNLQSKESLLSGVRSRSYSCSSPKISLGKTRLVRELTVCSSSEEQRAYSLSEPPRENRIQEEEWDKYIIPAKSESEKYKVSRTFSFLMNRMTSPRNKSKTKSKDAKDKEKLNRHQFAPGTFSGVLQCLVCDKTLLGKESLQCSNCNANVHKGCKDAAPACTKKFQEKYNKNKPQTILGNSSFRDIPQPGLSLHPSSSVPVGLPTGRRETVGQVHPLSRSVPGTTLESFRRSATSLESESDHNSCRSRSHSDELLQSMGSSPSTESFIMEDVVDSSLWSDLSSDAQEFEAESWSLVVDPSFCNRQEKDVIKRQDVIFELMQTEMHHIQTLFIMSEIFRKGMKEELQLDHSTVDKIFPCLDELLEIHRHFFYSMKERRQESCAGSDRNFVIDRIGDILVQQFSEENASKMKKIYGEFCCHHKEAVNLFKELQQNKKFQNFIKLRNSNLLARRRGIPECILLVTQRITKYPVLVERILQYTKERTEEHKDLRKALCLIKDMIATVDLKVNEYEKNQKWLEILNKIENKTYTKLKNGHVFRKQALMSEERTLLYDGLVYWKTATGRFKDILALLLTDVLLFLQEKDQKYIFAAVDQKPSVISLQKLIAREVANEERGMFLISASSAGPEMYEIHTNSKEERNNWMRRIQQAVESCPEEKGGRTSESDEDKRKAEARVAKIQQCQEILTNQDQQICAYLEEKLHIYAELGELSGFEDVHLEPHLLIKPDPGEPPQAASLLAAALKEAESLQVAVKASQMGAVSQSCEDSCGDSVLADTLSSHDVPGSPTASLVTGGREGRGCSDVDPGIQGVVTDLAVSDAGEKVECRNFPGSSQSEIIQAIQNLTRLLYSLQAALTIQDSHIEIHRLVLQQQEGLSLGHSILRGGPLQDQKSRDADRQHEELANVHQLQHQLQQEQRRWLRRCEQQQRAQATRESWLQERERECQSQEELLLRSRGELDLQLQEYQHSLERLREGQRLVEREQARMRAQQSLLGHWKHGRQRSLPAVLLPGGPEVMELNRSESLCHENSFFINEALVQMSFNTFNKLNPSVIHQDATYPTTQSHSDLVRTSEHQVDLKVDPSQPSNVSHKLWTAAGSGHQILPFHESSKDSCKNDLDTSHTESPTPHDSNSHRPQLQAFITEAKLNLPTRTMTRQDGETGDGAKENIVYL
RICTOR, sequence (Q6R327 whole entry): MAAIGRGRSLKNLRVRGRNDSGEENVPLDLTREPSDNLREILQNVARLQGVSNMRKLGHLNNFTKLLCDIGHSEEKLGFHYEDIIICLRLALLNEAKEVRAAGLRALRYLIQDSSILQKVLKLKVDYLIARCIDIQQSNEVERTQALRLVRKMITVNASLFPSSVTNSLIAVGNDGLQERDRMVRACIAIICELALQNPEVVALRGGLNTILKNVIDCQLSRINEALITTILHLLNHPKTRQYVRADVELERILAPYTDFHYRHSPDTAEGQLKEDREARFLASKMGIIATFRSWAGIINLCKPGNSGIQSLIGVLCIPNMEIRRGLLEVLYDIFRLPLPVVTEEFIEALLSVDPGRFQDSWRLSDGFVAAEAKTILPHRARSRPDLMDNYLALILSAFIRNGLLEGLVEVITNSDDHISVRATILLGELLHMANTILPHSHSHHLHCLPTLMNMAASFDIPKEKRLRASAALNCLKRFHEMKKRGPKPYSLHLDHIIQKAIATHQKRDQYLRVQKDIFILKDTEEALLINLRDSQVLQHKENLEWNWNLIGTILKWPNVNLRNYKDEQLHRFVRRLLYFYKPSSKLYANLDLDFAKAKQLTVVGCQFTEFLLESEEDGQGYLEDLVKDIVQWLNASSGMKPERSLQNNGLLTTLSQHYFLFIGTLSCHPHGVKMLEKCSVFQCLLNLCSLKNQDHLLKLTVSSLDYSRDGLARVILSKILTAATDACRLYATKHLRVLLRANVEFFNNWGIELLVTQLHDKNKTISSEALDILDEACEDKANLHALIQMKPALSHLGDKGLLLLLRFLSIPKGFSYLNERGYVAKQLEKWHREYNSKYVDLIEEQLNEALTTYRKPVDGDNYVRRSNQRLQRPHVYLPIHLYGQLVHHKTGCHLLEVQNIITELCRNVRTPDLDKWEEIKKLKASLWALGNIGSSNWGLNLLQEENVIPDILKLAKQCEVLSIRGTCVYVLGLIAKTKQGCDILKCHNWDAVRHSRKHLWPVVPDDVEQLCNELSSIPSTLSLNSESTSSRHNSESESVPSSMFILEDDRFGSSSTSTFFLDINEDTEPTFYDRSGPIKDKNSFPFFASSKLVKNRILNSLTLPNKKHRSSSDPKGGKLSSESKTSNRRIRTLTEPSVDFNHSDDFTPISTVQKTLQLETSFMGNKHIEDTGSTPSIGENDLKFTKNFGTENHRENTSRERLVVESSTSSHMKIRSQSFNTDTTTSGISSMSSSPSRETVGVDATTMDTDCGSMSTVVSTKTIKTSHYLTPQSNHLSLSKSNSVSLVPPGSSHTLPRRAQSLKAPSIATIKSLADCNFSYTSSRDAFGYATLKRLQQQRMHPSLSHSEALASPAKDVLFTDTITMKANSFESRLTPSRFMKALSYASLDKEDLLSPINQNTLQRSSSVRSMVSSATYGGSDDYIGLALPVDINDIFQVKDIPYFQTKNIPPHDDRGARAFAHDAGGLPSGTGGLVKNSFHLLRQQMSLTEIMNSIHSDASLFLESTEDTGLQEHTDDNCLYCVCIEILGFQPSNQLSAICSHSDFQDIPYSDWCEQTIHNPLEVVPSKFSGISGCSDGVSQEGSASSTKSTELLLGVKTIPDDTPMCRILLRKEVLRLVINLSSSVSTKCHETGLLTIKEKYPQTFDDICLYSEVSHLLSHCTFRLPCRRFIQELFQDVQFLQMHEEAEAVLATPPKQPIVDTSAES
TTI1, sequence (O43156 whole entry): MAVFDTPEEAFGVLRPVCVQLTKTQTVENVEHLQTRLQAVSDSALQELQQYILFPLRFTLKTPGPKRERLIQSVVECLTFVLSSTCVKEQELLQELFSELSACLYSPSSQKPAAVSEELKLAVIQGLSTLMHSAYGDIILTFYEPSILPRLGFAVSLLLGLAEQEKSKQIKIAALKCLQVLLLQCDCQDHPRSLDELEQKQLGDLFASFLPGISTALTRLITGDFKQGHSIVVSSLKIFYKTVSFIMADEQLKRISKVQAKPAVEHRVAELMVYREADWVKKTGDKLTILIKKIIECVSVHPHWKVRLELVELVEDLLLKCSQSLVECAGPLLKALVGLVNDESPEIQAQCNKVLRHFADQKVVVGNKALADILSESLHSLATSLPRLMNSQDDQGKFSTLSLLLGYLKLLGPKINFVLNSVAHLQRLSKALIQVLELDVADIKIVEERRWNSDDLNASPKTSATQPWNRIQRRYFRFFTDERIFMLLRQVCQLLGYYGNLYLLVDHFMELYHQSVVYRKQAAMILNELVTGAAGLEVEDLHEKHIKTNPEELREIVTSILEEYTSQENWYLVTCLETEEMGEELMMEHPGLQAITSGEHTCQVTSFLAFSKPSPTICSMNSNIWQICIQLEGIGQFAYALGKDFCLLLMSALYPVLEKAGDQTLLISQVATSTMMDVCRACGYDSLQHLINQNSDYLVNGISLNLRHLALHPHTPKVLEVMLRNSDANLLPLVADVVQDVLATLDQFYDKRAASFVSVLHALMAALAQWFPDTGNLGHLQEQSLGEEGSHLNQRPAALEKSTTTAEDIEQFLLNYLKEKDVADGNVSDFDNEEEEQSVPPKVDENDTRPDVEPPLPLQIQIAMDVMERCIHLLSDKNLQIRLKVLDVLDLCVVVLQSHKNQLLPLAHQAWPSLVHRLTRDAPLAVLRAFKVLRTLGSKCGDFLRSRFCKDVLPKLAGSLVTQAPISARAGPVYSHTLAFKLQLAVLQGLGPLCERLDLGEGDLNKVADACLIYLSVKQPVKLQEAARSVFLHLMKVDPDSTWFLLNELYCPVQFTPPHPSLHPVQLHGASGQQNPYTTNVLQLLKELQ

B1: LZTR1 R810W-FLAG (other, human, UniProt Q8N653 1-840, looked up)
chain: MAGPGSTGGQIGAAALAGGARSKVAPSVDFDHSCSDSVEYLTLNFGPFETVHRWRRLPPCDEFVGARRSKHTVVAYKDAIYVFGGDNGKTMLNDLLRFDVKDCSWCRAFTTGTPPAPRYHHSAVVYGSSMFVFGGYTGDIYSNSNLKNKNDLFEYKFATGQWTEWKIEGRLPVARSAHGATVYSDKLWIFAGYDGNARLNDMWTIGLQDRELTCWEEVAQSGEIPPSCCNFPVAVCRDKMFVFSGQSGAKITNNLFQFEFKDKTWTRIPTEHLLRGSPPPPQRRYGHTMVAFDRHLYVFGGAADNTLPNELHCYDVDFQTWEVVQPSSDSEVGGAEVPERACASEEVPTLTYEERVGFKKSRDVFGLDFGTTSAKQPTQPASELPSGRLFHAAAVISDAMYIFGGTVDNNIRSGEMYRFQFSCYPKCTLHEDYGRLWESRQFCDVEFVLGEKEECVQGHVAIVTARSRWLRRKITQARERLAQKLEQEAAPVPREAPGVAAGGARPPLLHVAIREAEARPFEVLMQFLYTDKIKYPRKGHVEDVLLIMDVYKLALSFQLCRLEQLCRQYIEASVDLQNVLVVCESAARLQLSQLKEHCLNFVVKESHFNQVIMMKEFERLSSPLIVEIVRRKQQPPPRTPLDQPVDIGTSLIQDMKAYLEGAGAEFCDITLLLDGHPRPAHKAILAARSSYFEAMFRSFMPEDGQVNISIGEMVPSRQAFESMLRYIYYGEVNMPPEDSLYLFAAPYYYGFYNNRLQAYCKQNLEMNVTVQNVLQILEAADKTQALDMKRHCLHIIVHQFTKVSKLPTLWSLSQQLLLDIIDSLASHISDKQCAELGADI
notes: Stably expressed in U87 cells by lentivirus; also called LZTR1-FLAG-R810W; LZTR1 RW; not shown: FLAG tag
binds: all assays above
